Assay results reported in patent publication US20170037110A1 (IMMATICS BIOTECHNOLOGIES, published 2017).

What follows are binders tested against T1, HLA-A*02:01 (human) (assay: UV peptide exchange ELISA).
T1 construct: monomers captured on streptavidin plates; also called MHC class I
Method in brief: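 Peptide-MHC complexes formed by UV-triggered exchange of a cleavable peptide for the test peptide, with stabilised complexes indicating binding. Exchange products diluted 100 fold onto streptavidin-coated wells, 1h at 37° C.; HRP anti-β2m (2 μg/ml), TMB, absorbance at 450 nm gives exchange yield.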

Binder | peptide exchange yield [%]
ALQNYIKEA | 20 to 50
TLIEDEIATI | 20 to 50
VLFSGALLGL | 20 to 50
YVYPQRLNFV | 50 to 75
GLVNDLARV | 20 to 50
YVIDQGETDVYV | 50 to 75
ALFQATAEV | ≥ 75
KVLDVSDLESV | 20 to 50
ALFMKQIYL | 50 to 75
ILFANPNIFV | 50 to 75
AMFESSQNVLL | 20 to 50
AMLNEPWAV | 50 to 75
ALLHPQGFEV | 20 to 50
LLAVIGGLVYL | 50 to 75
KLGHTDILVGV | 20 to 50
LILDWVPYI | 50 to 75
TLYGLSVLL | 50 to 75
YLFEMDSSL | 20 to 50
GLFPEHLIDV | 50 to 75
SLLQDLVSV | 50 to 75
KLYDRILRV | 20 to 50
GLLDTQTSQVLTA | 20 to 50
HLYSSIEHLTT | 50 to 75
SLLTEQDLWTV | 20 to 50
YLAPELFVNV | 20 to 50

Binder | peptide exchange yield [%]
ALYELEGTTV | 50 to 75
FIDEAYVEV | 20 to 50
ILLDVKTRL | ≥ 75
SMHDLVLQV | 50 to 75
LLQNEQFEL | 50 to 75
KVSNSGITRV | 20 to 50
ALDEYTSEL | ≥ 75
FLQAHLHTA | ≥ 75
YLFEPLYHV | 50 to 75
SLIPNLRNV | 50 to 75
RLADKSVLV | 50 to 75
SIQQSIERLLV | 20 to 50
ALLELAEEL | 50 to 75
ILADIVISA | 50 to 75
ALYDVFLEV | 20 to 50
ILLDDTGLAYI | 50 to 75
SLQNHNHQL | 50 to 75
ALLPLSPYL | 50 to 75
ALLDVTHSELTV | 50 to 75
SMAPGLVIQAV | 50 to 75
YLLPESVDL | 50 to 75
RLLDMGETDLML | 50 to 75
FLLDSSASV | 20 to 50
YLFGERLLEC | 50 to 75
TMLLNIPLV | 20 to 50

Binder | peptide exchange yield [%]
YLDDLNEGVYI | 20 to 50
FLLQQHLISA | 20 to 50
HLAEVSAEV | 50 to 75
ALLPDLPAL | 50 to 75
SLVNVVPKL | 20 to 50
KLLGKLPEL | 50 to 75
ALGYFVPYV | 50 to 75
SLLEDKGLAEV | 20 to 50
LLADVTHLL | 20 to 50
QLLDETSAITL | 50 to 75
ALALGGIAVV | ≥ 75
KLLEEDGTIITL | 20 to 50
VLDDSIYLV | 20 to 50
SLLELLHIYV | 50 to 75
KMLGIPISNILMV | 50 to 75
ALLELENSVTL | 50 to 75
IMEGTLTRV | 20 to 50
ILFRYPLTI | 50 to 75
SLLEQGLVEA | 20 to 50
LLDAMNYHL | 20 to 50
LILEGVDTV | 20 to 50
YLMDLINFL | 50 to 75
TLIEESAKV | 20 to 50
